The chains are these.
B1: Human Amyloid Beta 1-16 truncated peptide (peptide)
peptide: DAEFRHDSGYEVHHQK
notes: synthetic, unlabelled; also called Abeta 1-16
B2: Human Amyloid Beta 17-42 truncated peptide (peptide)
peptide: LVFFAEDVGSNKGAIIGLMVGGVVIA
notes: synthetic, unlabelled; also called Abeta 17-42
B3: Abet0144 scFv (scFv, V domains shown, not shown: small tags and cut ends)
VH: EVQLLESGGGLVQPGGSLRLSCAASGFTFSVYTMWWVRQAPGKGLEWVSVIGSSGGTTVYADSVKGRFTISRDNSKNTLYLQMNSLRAEDTAVYYCAREWMDHSRPYYYYGMDVWGQGTLVTVSS
VL: QSVLTQPPSVSVSPGQTASITCSGHNLEDKFASWYQQKSGQSPVLVIYRDDKRPSGIPERFSASNSGHTATLTISGTQATDEADYYCQAQDSTTRVFGGGTKLTVL
notes: non-germlined clone; VH is that of Abet0144-GL (no residues changed on germlining); also called most improved clone
B4: Abet0007 scFv (scFv, V domains shown, not shown: small tags and cut ends)
VH: B3 VH with W100G, M101Q, D102Q, H103L, S104V
VL: B3 VL
notes: purified scFv from E. coli (pCantab10.5); also called original lead; parent clone
B5: Abet0007 IgG2 (antibody, V domains shown)
VH: B3 VH with W100G, M101Q, D102Q, H103L, S104V
VL: B3 VL
notes: whole human IgG2 with human lambda light chain
B6: Abet0382 scFv (scFv, V domains shown, not shown: small tags and cut ends)
VH: EVQLLESGGGLVQPGGSLRLSCAASGFHFTNSIMWWVRQAPGKGLEWVSVIGSEAHRVTYADSVKGRFTISRDNSKNTLYLQMNSLRAEDTAVYYCAREWMDHSRPYYYYGMDVWGQGTLVTVSS
VL: B3 VL with Q1S, S2Y, V3E, T5I, S39P, S64T, Q88S, A89S, T93V
notes: purified scFv from E. coli
B7: Abet0380-GL IgG1-TM (antibody, V domains shown)
VH: EVQLLESGGGLVQPGGSLRLSCAASMGNFNYQTMWWVRQAPGKGLEWVSVIGKTNENIAYADSVKGRFTISRDNSKNTLYLQMNSLRAEDTAVYYCAREWMDHSRPYYYYGMDVWGQGTLVTVSS
VL: B3 VL with Q1S, S2Y, V3E, S39P, T80M, Q88S, A89S, S92T, T93V
notes: human IgG1 with the triple mutation L234F/L235E/P331S (TM), human lambda light chain; also called Abet0380-GL (germlined) IgG1-TM

The target in one test is T1, Abet0144-GL IgG1-TM.
T1 construct: human IgG1 with the triple mutation L234F/L235E/P331S (TM), human lambda light chain; also called Abet0144-GL (germlined) IgG1-TM
Put plainly: TR-FRET peptide competition: dilution series of unlabelled peptide against 1.5 nM biotinylated human Amyloid beta 1-42 peptide for 0.28 nM Abet0144-GL IgG1-TM (section 2.10). The procedure: This involved the use of Europium cryptate labelled anti-human Fc IgG (CisBio International, France; cat: 61 HFCKLB) and XL665 labelled streptavidin (CisBio International, France; cat: 611SAXLB) TR-FRET detection reagents.
Experiments were set up in Costar 384 well shallow bottom microtitre plates. […] 5 μl of assay buffer only was added to the negative binding assay control wells. […] 5 μl per well of each test peptide serial dilution was then transferred onto the 384 well assay plate. 5 μl of assay buffer only was added to the total and negative binding assay control wells. […] Finally, a combined solution was prepared containing Europium cryptate labelled anti-human Fc (2.4 nM) and XL665 labelled streptavidin (60 nM). 5 μl per well of this solution was added to all wells of the 384 well assay plate such that the final concentrations of Europium cryptate labelled anti-human Fc and XL665 labelled streptavidin were 0.6 nM and 15 nM, respectively.
(In general: TR-FRET usually uses a lanthanide donor and a delayed reading to cut background.)

The target in the test “Abet0380-GL IgG1-TM” is B7. The experiment in a line: HTRF (TR-FRET) peptide competition: dilution series of peptide (10 uM to 0.17 nM) against 1.5 nM N-terminal biotin Abeta 1-42 for 0.5 nM Abet0380-GL IgG1-TM (Example 6). The procedure: The assay was then incubated for a further 2 hrs at room temperature before reading on an Envision plate reader (PerkinElmer) using a standard homogeneous time resolved fluorescence (HTRF) read protocol.
The final assay volume was 20 ul and all reagents were prepared in an assay buffer comprising MOPS pH7.4 (50 mM), potassium fluoride (0.4M), tween 20 (0.1%) & fatty acid free BSA (0.1%). The assay was performed in low volume 384 well black assay plates (Costar 3676).

The test “Abet0007 IgG2” addresses B5. Put plainly: HTRF peptide competition: dilution series of unlabelled peptide against 5 nM biotinylated human Amyloid beta 1-42 peptide for 0.3 nM Abet0007 IgG2 (section 1.6). The procedure: (§1) As described above, the purified sFab fragments that bound specifically to the Amyloid beta 1-42 peptide were converted to recombinant IgG. To test the specificity of these IgGs for binding to other human Amyloid beta peptides, a competition assay was developed. […] The competition of each peptide was assessed by detecting the loss of binding of the lead IgG to the biotinylated 1-42 peptide by measuring the fluorescence resonance energy transfer (FRET) between the IgG and biotinylated 1-42 Amyloid beta using streptavidin cryptate (CisBio International, France; cat: 610SAKLB) and anti-human Fc IgG XL665 (CisBio International, France; cat: 61HFCXLB) detection reagents.
(§2) Streptavidin cryptate and anti-human Fc IgG XL665 were combined at 7 nM and 5 nM respectively in assay buffer containing 50 mM MOPS pH 7.4 (Sigma, UK; cat: M9381), 0.4 M KF (BDH Chemicals, USA; cat: 103444T), 0.1% fatty acid free bovine serum albumin (Sigma, UK; cat: A6003) and 0.1% Tween 20 (v/v) (Sigma, UK; cat: P2287). 5 μl of this solution were added to the assay plate (Costar® 384 well black shallow well, Corning Life Sciences; cat: 3676). Amyloid beta peptides were serially diluted in assay buffer using a Greiner 96 well U bottom plate (Greiner BioOne, Germany; cat: 650201). 5 μl of each peptide dilution were transferred in duplicate to the assay plate using a MiniTrak™ (PerkinElmer, USA) liquid handling robot. […]

Test [1] concerns the target T2, Biotinylated Human Amyloid Beta 1-42 peptide (human, N-terminal biotin).
T2 construct: synthetic (rPeptide A1117 or Bachem H-5642); also called N-terminal biotin Abeta 1-42; synthetic biotinylated human Amyloid beta 1-42 peptide
The experiment in a line: HTRF epitope competition, purified scFv; competitor Abet0042 IgG. The procedure: The scFv with unique protein sequences were expressed in E. coli and purified by affinity chromatography followed by buffer exchange. […] The time resolved fluorescence was read after two hours incubation at room temperature.
Purified scFv were serially diluted in assay buffer containing 50 mM MOPS buffer pH 7.4 (Sigma, UK; cat: M9381), 0.4 M potassium fluoride (BDH Chemicals, USA; cat: 103444T), 0.1% fatty acid free bovine serum albumin (Sigma, UK; cat: A6003) and 0.1% Tween 20 (Sigma, UK; cat: P2287) using a Greiner 96 well U bottom plate (Greiner BioOne, Germany; cat: 650201). 5 μl of each dilution of scFv was transferred in duplicate to the assay plate (Costar® 384 well black shallow well, Corning Life Sciences; cat: 3676) using a MiniTrak™ (PerkinElmer, USA) liquid handling robot. […] The assay plates were sealed and incubated at room temperature for 1 hour. Streptavidin cryptate and anti-human Fc IgG XL665 were combined at 7 nM and 20 nM respectively in assay buffer and 5 μl of this solution were added to the assay plate.

In test [2] the target is T2, Biotinylated Human Amyloid Beta 1-42 …. The experiment in a line: SPR (BIAcore T-100), scFv over biotinylated peptide on SA chip, 1:1 Langmuir fit. The procedure: The chip surface was regenerated between cycles by a single 20 second injection of 10 mM Glycine pH 2.0 to remove scFv bound to the peptide.
A series of dilutions of each purified scFv (12.5-400 nM) were sequentially passed over the peptide surface for a sufficient amount of time to observe sensorgrams that could be fitted to an appropriate binding model with confidence. A zero-concentration buffer blank was subtracted from the main dataset to reduce the impact of any buffer artefacts or non-specific binding effects. An appropriate binding model was then fitted simultaneously to the data from each analyte titration using the BIAevaluation software.
Background: Surface plasmon resonance follows binding to a sensor surface in real time, without labels.

Test [3] addresses B2. Put plainly: HTRF peptide competition against biotinylated human Amyloid beta 1-42. The procedure:
as §1, §2

For test [4], the target named is T3, Human Amyloid Beta 1-43 peptide (human).
T3 construct: synthetic, unlabelled; also called Abeta 1-43
The test is described as above. The procedure: as §1, §2

The target of test [5] is T4, Human Amyloid Beta 1-42 peptide (human).
T4 construct: synthetic, unlabelled; also used here for the endogenous peptide of human plasma in the depletion assay; also called unlabelled human Amyloid beta 1-42; synthetic human Amyloid beta 1-42 peptide
The experiment in a line: SPR (BIAcore T-100), peptide over amine-coupled IgG, 1:1 Langmuir fit, mean. The protocol: The chip surface was regenerated between cycles by a single 40 second injection of 10 mM Glycine pH 2.0 to remove ligand bound to the antibody.
Blank reference flow-cell data were subtracted from each IgG dataset and a zero-concentration buffer blank was double-reference subtracted from the main data set to reduce the impact of any buffer artefacts or non-specific binding effects. An appropriate binding model was then fitted simultaneously to the data from each analyte titration using the BIAevaluation software.
These parameters were derived from a 1:1 Langmuir fit to the data.

Test [6] addresses T5, Human Amyloid Beta 1-40 peptide (human).
T5 construct: synthetic, unlabelled; also called unlabelled human Amyloid beta 1-40
Put plainly: HTRF peptide competition: dilution series of unlabelled peptide against 5 nM biotinylated human Amyloid beta 1-42 peptide for 0.3 nM Abet0007 IgG2 (section 1.6). The procedure: as §1, §2

Test [7] deals with T2, Biotinylated Human Amyloid Beta 1-42 …. Put plainly: HTRF epitope competition; competitor Abet0144-GL IgG1-TM.
For test [8] the target is unchanged. Put plainly: SPR (ProteOn), scFv over immobilised biotinylated peptide. The protocol:
These experiments were performed essentially as described by Karlsson et al. (Karlsson et al., 1991). For further details see section 1.7.
The chip surface was regenerated between cycles by a single 60 second injection of 10 mM Glycine pH 2.0 to remove scFv bound to the peptide.
Each scFv at 100-200 nM was sequentially passed over the peptide surface for a sufficient amount of time to observe sensorgrams that could be fitted to an appropriate binding model with confidence. An irrelevant scFv blank was subtracted from the main dataset to reduce the impact of any buffer artefacts or non-specific binding effects. An appropriate binding model was then fitted to the data.

The target of test [9] is T6, Amyloid beta plaques on human Alzheimer's Disease brain sections (human, UniProt P05067 672-713).
T6 construct: mixture of Amyloid beta species in tissue; also called native Amyloid beta; human AD brain sections
Put plainly: in vitro immunohistochemistry, core plaques.

Numbering of substitutions follows the chain as printed. In names and notes the source's numbering stands.

A word on the IC50: it is the midpoint of a concentration-inhibition curve. By Kd is commonly meant a measure of binding affinity in units of concentration. As a reminder, the koff is a measure of how fast the partners let go of each other. Low readings indicate slow dissociation, high ones fast dissociation. Broadly, the kon is the rate constant with which the complex forms. The low end stands for slow association, the high end for fast association.

T3 sequence (peptide, as listed by the source): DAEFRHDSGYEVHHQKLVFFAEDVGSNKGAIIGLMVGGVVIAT
T5 sequence (peptide, as listed by the source): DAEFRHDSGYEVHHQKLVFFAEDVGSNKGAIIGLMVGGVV
Chain of Abet0380-GL IgG1-TM (VL, as listed by the source): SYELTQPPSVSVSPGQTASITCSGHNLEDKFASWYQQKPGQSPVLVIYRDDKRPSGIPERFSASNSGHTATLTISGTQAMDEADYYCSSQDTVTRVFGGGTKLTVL

As to B1, the binding result is recorded as “no binding (tested: 1e-5 M (logM -5))” with Abet0144-GL IgG1-TM and “no binding (tested: 1e-5 M (log M -5))” with Abet0380-GL IgG1-TM.

Turning to B2, the binding result in the test with Abet0007 IgG2 was “binds”.

B3 displayed a 50% inhibitory concentration (IC50) in [1] of 5.5 nM. In [2], the dissociation constant Kd came out at 33.2 nM, the koff turned out to be 0.00666 s⁻¹ and the on-rate (kon) amounted to 201000 M⁻¹ s⁻¹.

On to B4, for which the 50% inhibitory concentration (IC50) in test [1] worked out at 159 nM.

Consider B5, for which the binding result in test [3] was “binds”; in [4], “binds”; in test [6], “no binding (tested: about 2.5e-6 M (Log M about -5.6))”. For the same molecule, binding in test [5] was put at a Kd of 473 nM. In test [5], this molecule registered a koff of 0.074 s⁻¹. Besides, in test [5], the kon worked out at 160000 M⁻¹ s⁻¹.

In [7], B6 gave an IC50 of 0.66 nM. Moreover, in test [8], the equilibrium dissociation constant (Kd) came to 0.354 nM, the off-rate constant (koff) was 7.97e-05 s⁻¹ and the kon worked out at 225000 M⁻¹ s⁻¹.

Take B7: the “plaque staining score (0-4)” value in test [9] stood at 3.

For the origin of these results see patent US20250304670A1 (AstraZeneca / MedImmune, published 2025).
